{"source": "patent US20260242852", "target": "AsCas12a (Acidaminococcus sp.?) (UniProt U2UMQ6)", "assay": "BLI", "details": "ΨDNA guide binding without target; NEB 2.1, 0.05% Triton X", "data": [{"sequence": "AGCACCCAGTCCGCCCTGAGTAGATGTGAATCATCTTTAAT [AsCas12a GFP ΨDNA 3'-biotin]", "values": [{"measurement": "Kd", "value": 24.5, "unit": "nM"}]}]}
